The target in this experiment is PsaJF mutant PSI from Synechocystis sp. PCC 6803 (Synechocystis sp. PCC 6803) (UniProt Q55329). Briefly: cell-based or functional assay.

This is an account of results in patent US20120115202A1.

In turn, “horse heart cytochrome c (from UniProt P00004 2-105)” came in with a rate of electron donation (light-induced cytochrome c oxidation, absorbance difference 550-540 nm) (fold faster than to the wild-type PSI) above 5.
